Experiment [1] concerns the target RAGE (receptor for advanced glycation end products), endogenous in MDA-MB-231 cells (human (endogenous in MDA-MB-231)) (UniProt Q15109).
Experiment [2] has the same target. The source holds these as a separate data set.

Sequence of UniProt Q15109 (Q15109 23-404): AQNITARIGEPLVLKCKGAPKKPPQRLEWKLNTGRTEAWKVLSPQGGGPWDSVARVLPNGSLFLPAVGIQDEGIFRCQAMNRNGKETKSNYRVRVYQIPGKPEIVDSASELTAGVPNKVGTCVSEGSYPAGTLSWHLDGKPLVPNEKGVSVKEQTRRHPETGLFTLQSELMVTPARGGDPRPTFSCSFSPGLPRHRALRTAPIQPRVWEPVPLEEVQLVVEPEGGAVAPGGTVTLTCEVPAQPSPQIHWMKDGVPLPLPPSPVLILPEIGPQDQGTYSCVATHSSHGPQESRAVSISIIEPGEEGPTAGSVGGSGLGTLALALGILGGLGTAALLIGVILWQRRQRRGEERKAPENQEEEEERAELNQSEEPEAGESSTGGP

For the substance “recombinant human acetylated APE1/Ref-1 (apurinic apyrimidinic endonuclease 1/redox factor-1) (from UniProt P27695 1-318) (natural protein)”, in experiment [1], the cell viability of ASA-pretreated MDA-MB-231 cells after removal of Ac-APE1/Ref-1 with an anti-APE1/Ref-1 antibody (2 ug) turned out to be 80% and the cytoplasmic histone-associated DNA fragmentation in ASA-pretreated MDA-MB-231 cells after removal of Ac-APE1/Ref-1 with an anti-APE1/Ref-1 antibody (2 ug) (% of the control level) came to 33. In experiment [2], “secreted acetylated APE1/Ref-1 from ASA/TSA-treated MDA-MB-231 cells (from UniProt P27695 1-318) (natural protein)” showed a phosphorylation of p38 MAPK at Tyr182 in MDA-MB-231 cells treated with 5 mM ASA (3 h to 24 h) of 62%.

(Values after paper PMC4695125.)
